Results reported in patent publication US20100323375.

Legend:
FLAG-Alcalpha = target: T1, FLAG-Alcalpha
T1 chain 1: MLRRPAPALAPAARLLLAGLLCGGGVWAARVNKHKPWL
T1 chain 2: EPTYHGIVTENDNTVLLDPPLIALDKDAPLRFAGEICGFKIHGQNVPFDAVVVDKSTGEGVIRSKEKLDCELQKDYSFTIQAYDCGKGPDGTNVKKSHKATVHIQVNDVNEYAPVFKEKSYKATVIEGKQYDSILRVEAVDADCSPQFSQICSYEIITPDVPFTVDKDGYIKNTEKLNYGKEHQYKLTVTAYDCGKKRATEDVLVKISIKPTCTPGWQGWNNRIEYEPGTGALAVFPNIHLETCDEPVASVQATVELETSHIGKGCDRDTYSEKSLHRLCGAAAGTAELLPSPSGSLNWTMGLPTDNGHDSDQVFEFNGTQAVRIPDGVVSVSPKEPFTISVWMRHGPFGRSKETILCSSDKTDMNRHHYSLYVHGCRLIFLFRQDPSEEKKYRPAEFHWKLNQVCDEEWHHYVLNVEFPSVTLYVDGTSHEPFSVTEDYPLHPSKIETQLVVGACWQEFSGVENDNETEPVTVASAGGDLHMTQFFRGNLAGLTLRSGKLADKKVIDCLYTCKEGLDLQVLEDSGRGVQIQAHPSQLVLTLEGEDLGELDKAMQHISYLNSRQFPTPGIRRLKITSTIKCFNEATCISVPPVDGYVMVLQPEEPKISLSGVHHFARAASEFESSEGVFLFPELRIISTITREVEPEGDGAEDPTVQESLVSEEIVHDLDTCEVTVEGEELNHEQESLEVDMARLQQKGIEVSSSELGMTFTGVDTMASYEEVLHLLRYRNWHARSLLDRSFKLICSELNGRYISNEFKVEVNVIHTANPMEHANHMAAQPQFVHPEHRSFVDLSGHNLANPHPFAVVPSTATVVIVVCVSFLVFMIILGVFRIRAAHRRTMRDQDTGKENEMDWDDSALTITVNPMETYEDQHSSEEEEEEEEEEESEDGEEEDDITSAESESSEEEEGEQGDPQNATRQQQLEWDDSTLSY

FLAG-Alcbeta = target: T2, FLAG-Alcbeta
T2 chain 1: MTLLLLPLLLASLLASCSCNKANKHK
T2 chain 2: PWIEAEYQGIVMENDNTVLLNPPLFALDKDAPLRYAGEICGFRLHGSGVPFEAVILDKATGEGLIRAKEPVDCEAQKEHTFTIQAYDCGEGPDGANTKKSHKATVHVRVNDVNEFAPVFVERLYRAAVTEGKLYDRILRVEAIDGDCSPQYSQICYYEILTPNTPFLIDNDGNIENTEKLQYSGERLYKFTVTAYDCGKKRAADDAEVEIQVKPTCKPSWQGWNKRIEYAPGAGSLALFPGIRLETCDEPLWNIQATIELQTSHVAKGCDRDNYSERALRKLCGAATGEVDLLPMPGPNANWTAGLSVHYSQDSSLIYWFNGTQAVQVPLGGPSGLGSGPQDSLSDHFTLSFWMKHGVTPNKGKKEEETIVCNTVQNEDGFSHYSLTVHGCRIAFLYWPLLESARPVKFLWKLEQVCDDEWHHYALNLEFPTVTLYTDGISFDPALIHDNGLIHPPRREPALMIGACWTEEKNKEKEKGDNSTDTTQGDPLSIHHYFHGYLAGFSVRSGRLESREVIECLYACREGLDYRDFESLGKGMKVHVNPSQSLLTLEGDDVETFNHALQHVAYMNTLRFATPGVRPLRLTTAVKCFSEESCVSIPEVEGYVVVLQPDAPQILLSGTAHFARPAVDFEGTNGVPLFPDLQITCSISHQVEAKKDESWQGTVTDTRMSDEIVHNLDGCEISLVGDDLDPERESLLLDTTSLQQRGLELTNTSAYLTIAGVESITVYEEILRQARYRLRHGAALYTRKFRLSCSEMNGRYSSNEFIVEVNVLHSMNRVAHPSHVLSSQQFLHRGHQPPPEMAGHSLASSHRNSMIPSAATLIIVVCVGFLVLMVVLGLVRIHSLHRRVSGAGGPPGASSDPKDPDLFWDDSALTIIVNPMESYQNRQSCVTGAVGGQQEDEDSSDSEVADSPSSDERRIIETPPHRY

FLAG-Alcgamma = target: T3, FLAG-Alcgamma
T3 chain 1: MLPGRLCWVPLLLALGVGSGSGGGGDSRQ
T3 chain 2: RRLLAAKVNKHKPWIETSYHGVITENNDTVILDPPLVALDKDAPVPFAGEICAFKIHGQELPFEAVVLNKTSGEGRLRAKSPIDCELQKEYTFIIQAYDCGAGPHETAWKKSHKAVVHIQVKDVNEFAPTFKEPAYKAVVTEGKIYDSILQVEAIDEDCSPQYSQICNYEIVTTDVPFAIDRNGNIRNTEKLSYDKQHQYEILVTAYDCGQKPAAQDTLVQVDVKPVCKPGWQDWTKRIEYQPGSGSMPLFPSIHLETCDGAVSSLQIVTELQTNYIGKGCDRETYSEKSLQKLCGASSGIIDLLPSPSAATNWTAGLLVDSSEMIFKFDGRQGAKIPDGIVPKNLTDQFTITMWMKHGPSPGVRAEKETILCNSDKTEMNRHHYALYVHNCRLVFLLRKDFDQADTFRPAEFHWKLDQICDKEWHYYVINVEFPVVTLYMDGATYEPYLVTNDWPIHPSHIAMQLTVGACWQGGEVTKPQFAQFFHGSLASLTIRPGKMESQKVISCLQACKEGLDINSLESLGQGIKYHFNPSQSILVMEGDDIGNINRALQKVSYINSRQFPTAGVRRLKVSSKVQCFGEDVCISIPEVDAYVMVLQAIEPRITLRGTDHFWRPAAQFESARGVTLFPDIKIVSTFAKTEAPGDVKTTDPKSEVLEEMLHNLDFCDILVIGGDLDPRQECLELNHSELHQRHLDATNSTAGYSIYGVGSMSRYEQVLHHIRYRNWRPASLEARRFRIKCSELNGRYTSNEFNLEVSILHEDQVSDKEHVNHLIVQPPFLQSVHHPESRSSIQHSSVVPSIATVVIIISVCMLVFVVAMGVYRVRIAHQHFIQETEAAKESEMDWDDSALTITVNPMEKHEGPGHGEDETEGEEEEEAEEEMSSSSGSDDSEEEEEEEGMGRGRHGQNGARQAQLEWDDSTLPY

Sequence of FLAG-APP, P05067 (P05067 whole entry, looked up): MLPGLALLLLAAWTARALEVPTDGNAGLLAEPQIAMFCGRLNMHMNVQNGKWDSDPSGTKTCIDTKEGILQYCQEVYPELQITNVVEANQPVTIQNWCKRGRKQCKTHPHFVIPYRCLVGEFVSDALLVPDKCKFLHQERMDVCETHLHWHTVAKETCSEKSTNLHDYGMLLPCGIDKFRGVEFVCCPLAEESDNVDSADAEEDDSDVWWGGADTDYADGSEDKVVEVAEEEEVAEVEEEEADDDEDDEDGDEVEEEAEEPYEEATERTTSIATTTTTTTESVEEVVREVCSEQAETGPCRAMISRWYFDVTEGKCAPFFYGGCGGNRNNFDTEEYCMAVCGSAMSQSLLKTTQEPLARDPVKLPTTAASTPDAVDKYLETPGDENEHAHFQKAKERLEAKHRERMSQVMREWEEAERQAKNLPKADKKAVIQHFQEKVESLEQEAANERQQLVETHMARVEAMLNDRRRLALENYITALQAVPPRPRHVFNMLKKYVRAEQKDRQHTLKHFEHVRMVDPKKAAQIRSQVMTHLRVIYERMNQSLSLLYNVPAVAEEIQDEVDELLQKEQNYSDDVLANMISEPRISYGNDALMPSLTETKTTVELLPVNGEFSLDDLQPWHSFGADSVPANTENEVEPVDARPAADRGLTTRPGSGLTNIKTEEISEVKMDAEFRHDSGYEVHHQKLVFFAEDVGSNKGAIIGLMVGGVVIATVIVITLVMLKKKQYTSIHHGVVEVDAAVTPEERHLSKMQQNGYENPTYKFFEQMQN

B1: ADAM10 (endogenous, mouse embryonic fibroblasts) (protein)
chain: TTLAERNTCQLYIQTDHLFFKYYGTREAVIAQISSHVKAIDTIYQTTDFSGIRNISFMVKRIRINTTSDEKDPTNPFRFPNIGVEKFLELNSEQNHDDYCLAYVFTDRDFDDGVLGLAWVGAPSGSSGGICEKSKLYSDGKKKSLNTGIITVQNYGSHVPPKVSHITFAHEVGHNFGSPHDSGTECTPGESKNLGQKENGNYIMYARATSGDKLNNNKFSLCSIRNISQVLEKKRNNCFVESGQPICGNGMVEQGEECDCGYSDQCKDDCCFDANQPEGKKCKLKPGKQCSPSQGPCCTAQCAFKSKSEKCRDDSDCAKEGICNGFTALCPASDPKPNFTDCNRHTQVCINGQCAGSICEKYDLEECTCASSDGKDDKELCHVCCMKKMAPSTCASTGSLQWSKQFSGRTITLQPGSPCNDFRGYCDVFMRCRLVDADGPLARLKKAIFSPQLYENIAEWIVAHWWAVLLMGIALIMLMAGFIKICSVHTPSSNPKLPPPKPLPGTLKRRRPPQPIQQPPRQRPRESYQMGHMRR
amount of sAlcalpha secreted into the medium (western blot of anti-FLAG immunoprecipitate), ADAM10 (-/-) against (+/-) MEFs (FLAG-Alcalpha): The amounts of sAlcalpha, sAlcbeta, and sAlcgamma secreted by ADAM (-/-) MEFs were as low as that of APP | amount of sAlcbeta secreted into the medium (western blot of anti-FLAG immunoprecipitate), ADAM10 (-/-) against (+/-) MEFs (FLAG-Alcbeta): The amounts of sAlcalpha, sAlcbeta, and sAlcgamma secreted by ADAM (-/-) MEFs were as low as that of APP | amount of sAlcgamma secreted into the medium (western blot of anti-FLAG immunoprecipitate), ADAM10 (-/-) against (+/-) MEFs (FLAG-Alcgamma): The amounts of sAlcalpha, sAlcbeta, and sAlcgamma secreted by ADAM (-/-) MEFs were as low as that of APP | amount of sAPP secreted into the medium (western blot of anti-FLAG immunoprecipitate), ADAM10 (-/-) against (+/-) MEFs (FLAG-APP, P05067): ADAM (-/-) MEFs secreted sAPP (lane 2 of FIG. 1D) 40% lower than ADAM (+/-) MEFs
